# Assay results: patent publication EP1516629B1
# pKd: −log10 of the molar value.
# Key:
# human CD18 (human) = human CD18 (human) (UniProt P05107); test: cell-based or functional assay
# rhesus CD18 (rhesus) [1] = target: rhesus CD18 (rhesus) (UniProt H9Z8N5); test: cell-based or functional assay
# rhesus CD18 (rhesus) [2] = target: rhesus CD18 (rhesus) (UniProt H9Z8N5); test: saturation binding, rhesus leukocytes, donor 1, Kd(app)
# rhesus CD18 (rhesus) [3] = target: rhesus CD18 (rhesus) (UniProt H9Z8N5); test: saturation binding, rhesus leukocytes, donor 2, Kd(app)
# human CD18 (human), sequence (P05107 23-769): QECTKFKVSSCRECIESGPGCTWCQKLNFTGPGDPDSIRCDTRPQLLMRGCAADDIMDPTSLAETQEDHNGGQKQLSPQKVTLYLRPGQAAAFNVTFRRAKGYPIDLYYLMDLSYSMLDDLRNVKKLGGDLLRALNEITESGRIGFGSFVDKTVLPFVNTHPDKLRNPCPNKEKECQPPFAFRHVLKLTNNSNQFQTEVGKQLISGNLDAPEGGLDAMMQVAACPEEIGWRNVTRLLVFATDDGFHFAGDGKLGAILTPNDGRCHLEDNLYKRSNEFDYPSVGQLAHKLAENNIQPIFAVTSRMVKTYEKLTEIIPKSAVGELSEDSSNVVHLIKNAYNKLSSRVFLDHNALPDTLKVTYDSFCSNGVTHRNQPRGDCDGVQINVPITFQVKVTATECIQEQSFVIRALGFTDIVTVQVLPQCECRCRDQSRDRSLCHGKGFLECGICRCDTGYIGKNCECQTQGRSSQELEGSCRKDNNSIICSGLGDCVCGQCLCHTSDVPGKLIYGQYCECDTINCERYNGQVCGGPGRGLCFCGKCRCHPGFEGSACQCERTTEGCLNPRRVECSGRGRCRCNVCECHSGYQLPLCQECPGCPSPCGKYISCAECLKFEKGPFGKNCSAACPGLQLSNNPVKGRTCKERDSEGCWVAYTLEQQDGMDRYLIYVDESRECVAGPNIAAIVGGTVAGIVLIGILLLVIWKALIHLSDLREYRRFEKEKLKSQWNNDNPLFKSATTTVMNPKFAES
substance,measurement,setting,value
murine anti-human CD18 antibody MHM23,"IC50, blocking of cell adhesion, Rh/HuCD11a:HuK",human CD18 (human),1.4 nM
same,"IC50, blocking of cell adhesion, RhLy:HuICAM",rhesus CD18 (rhesus) [1],1.2 nM
same,"IC50, blocking of cell adhesion, RhLy:HuK",rhesus CD18 (rhesus) [1],1.6 nM
same,pKd,rhesus CD18 (rhesus) [2],8.41
same,pKd,rhesus CD18 (rhesus) [3],8.35
